The chains are these.
B3: DnaA domain I (residues 1-81) (domain or fragment)
chain: MENILDLWNQALAQIEKKLSKPSFETWMKSTKAHSLQGDTLTITAPNEFARDWLESRYLHLIADTIYELTGEELSIKFVIP
B5: DnaA(N191C/A198C) (natural protein)
chain: MENILDLWNQALAQIEKKLSKPSFETWMKSTKAHSLQGDTLTITAPNEFARDWLESRYLHLIADTIYELTGEELSIKFVIPQNQDVEDFMPKPQVKKAVKEDTSDFPQNMLNPKYTFDTFVIGSGNRFAHAASLAVAEAPAKAYNPLFIYGGVGLGKTHLMHAIGHYVIDHNPSAKVVYLSSEKFTNEFICSIRDNKCVDFRNRYRNVDVLLIDDIQFLAGKEQTQEEFFHTFNTLHEESKQIVISSDRPPKEIPTLEDRLRSRFEWGLITDITPPDLETRIAILRKKAKAEGLDIPNEVMLYIANQIDSNIRELEGALIRVVAYSSLINKDINADLAAEALKDIIPSSKPKVITIKEIQRVVGQQFNIKLEDFKAKKRTKSVAFPRQIAMYLSREMTDSSLPKIGEEFGGRDHTTVIHAHEKISKLLADDEQLQQHVKEIKEQLK

Series [1] has as its target B5. Nature of the series: loss and rescue of BMOE cross-linking of DnaA-DNA filaments.
Series [2] addresses B3. Nature of the series: NMR titration.
In series [3] the target is T1, DnaD DDBH2 domain (residues 129-232) (Bacillus subtilis, UniProt P39787 129-232).
T1 sequence: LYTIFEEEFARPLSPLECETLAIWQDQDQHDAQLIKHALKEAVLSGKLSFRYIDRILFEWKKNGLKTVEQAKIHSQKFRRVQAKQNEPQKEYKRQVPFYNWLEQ
The experiment in a line: NMR titration.

Series [4] addresses T1, DnaD DDBH2 domain (residues 129-232). Nature of the series: NMR titration. The source holds these as a separate data set.
Series [5] concerns the molecule itself. Nature of the series: FRET or BRET.
Series [6] deals with the molecule itself. Nature of the series: cross-linking.

Like-named read-outs stand apart in the source and are kept apart here.

B1: DnaD (full length) (natural protein)
chain: MKKQQFIDMQEQGTSTIPNLLLTHYKQLGLNETELILLLKIKMHLEKGSYFPTPNQLQEGMSISVEECTNRLRMFIQKGFLFIEECEDQNGIKFEKYSLQPLWGKLYEYIQLAQNQTQERKAEGEQKSLYTIFEEEFARPLSPLECETLAIWQDQDQHDAQLIKHALKEAVLSGKLSFRYIDRILFEWKKNGLKTVEQAKIHSQKFRRVQAKQNEPQKEYKRQVPFYNWLEQ
Consider B1, for which, in series [1], the binding result is recorded as “binds”.

B2: truncated DnaD DDBH2 domain (residues 129-196) (domain or fragment)
chain: LYTIFEEEFARPLSPLECETLAIWQDQDQHDAQLIKHALKEAVLSGKLSFRYIDRILFEWKKNGLKTV
For the molecule B2, in series [2], the binding result is “binds”. The Kd is a measure of binding affinity in units of concentration. With B3, the Kd stood at 665 ± 251 µM in series [3] and 768 ± 168 µM in series [4].

B4: DnaA N191C, labelled with Cy3B or Atto647N (natural protein)
chain: MENILDLWNQALAQIEKKLSKPSFETWMKSTKAHSLQGDTLTITAPNEFARDWLESRYLHLIADTIYELTGEELSIKFVIPQNQDVEDFMPKPQVKKAVKEDTSDFPQNMLNPKYTFDTFVIGSGNRFAHAASLAVAEAPAKAYNPLFIYGGVGLGKTHLMHAIGHYVIDHNPSAKVVYLSSEKFTNEFICSIRDNKAVDFRNRYRNVDVLLIDDIQFLAGKEQTQEEFFHTFNTLHEESKQIVISSDRPPKEIPTLEDRLRSRFEWGLITDITPPDLETRIAILRKKAKAEGLDIPNEVMLYIANQIDSNIRELEGALIRVVAYSSLINKDINADLAAEALKDIIPSSKPKVITIKEIQRVVGQQFNIKLEDFKAKKRTKSVAFPRQIAMYLSREMTDSSLPKIGEEFGGRDHTTVIHAHEKISKLLADDEQLQQHVKEIKEQLK
In the case of B4, the binding result in series [5] is on record as “binds”. Regarding B5, the binding result in series [6] is “binds”.

B6: DnaA A198C, labelled with Cy3B or Atto647N (natural protein)
chain: MENILDLWNQALAQIEKKLSKPSFETWMKSTKAHSLQGDTLTITAPNEFARDWLESRYLHLIADTIYELTGEELSIKFVIPQNQDVEDFMPKPQVKKAVKEDTSDFPQNMLNPKYTFDTFVIGSGNRFAHAASLAVAEAPAKAYNPLFIYGGVGLGKTHLMHAIGHYVIDHNPSAKVVYLSSEKFTNEFINSIRDNKCVDFRNRYRNVDVLLIDDIQFLAGKEQTQEEFFHTFNTLHEESKQIVISSDRPPKEIPTLEDRLRSRFEWGLITDITPPDLETRIAILRKKAKAEGLDIPNEVMLYIANQIDSNIRELEGALIRVVAYSSLINKDINADLAAEALKDIIPSSKPKVITIKEIQRVVGQQFNIKLEDFKAKKRTKSVAFPRQIAMYLSREMTDSSLPKIGEEFGGRDHTTVIHAHEKISKLLADDEQLQQHVKEIKEQLK
modifications: Cy3B-maleimide or Atto647N-maleimide on the cysteine at 198
Consider B6, for which, in series [5], the binding result is reported as “binds”.

(Values after doi:10.1101/444885 (bioRxiv, 2018).)
